According to US9658208B2, “Methods and G proteins for screening and identifying ligands of G protein-coupled receptors” (Fred Hutchinson Cancer Research Center, priority 2011, dated 2017):

Target: T1, sweet receptor heterodimer (T1R2/T1R3) (Mus musculus, UniProt Q925D8+Q925I4)
T1 construct: expressed in transfected cells; host or cells: HEK-293
T1 sequence (Q925I4 20-843): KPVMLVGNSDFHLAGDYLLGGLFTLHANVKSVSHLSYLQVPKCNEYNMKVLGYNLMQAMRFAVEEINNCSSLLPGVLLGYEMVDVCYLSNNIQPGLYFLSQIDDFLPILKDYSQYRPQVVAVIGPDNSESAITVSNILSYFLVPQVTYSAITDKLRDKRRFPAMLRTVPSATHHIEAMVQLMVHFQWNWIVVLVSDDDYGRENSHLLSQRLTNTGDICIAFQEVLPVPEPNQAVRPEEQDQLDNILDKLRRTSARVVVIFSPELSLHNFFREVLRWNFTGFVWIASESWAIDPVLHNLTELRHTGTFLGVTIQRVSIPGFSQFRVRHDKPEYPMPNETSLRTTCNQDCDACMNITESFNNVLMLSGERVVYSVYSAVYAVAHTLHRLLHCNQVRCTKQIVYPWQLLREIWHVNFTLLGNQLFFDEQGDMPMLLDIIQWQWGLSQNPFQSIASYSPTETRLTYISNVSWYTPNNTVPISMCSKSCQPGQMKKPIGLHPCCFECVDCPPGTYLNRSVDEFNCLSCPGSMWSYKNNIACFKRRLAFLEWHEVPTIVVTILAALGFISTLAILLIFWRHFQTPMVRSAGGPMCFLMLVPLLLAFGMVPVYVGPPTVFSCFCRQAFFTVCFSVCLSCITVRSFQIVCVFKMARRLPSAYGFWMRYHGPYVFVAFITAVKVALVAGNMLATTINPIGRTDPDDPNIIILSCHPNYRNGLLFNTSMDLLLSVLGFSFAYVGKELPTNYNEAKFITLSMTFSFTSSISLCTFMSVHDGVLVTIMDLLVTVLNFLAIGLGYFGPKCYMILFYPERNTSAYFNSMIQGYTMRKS
T1 sequence (Q925D8 21-858): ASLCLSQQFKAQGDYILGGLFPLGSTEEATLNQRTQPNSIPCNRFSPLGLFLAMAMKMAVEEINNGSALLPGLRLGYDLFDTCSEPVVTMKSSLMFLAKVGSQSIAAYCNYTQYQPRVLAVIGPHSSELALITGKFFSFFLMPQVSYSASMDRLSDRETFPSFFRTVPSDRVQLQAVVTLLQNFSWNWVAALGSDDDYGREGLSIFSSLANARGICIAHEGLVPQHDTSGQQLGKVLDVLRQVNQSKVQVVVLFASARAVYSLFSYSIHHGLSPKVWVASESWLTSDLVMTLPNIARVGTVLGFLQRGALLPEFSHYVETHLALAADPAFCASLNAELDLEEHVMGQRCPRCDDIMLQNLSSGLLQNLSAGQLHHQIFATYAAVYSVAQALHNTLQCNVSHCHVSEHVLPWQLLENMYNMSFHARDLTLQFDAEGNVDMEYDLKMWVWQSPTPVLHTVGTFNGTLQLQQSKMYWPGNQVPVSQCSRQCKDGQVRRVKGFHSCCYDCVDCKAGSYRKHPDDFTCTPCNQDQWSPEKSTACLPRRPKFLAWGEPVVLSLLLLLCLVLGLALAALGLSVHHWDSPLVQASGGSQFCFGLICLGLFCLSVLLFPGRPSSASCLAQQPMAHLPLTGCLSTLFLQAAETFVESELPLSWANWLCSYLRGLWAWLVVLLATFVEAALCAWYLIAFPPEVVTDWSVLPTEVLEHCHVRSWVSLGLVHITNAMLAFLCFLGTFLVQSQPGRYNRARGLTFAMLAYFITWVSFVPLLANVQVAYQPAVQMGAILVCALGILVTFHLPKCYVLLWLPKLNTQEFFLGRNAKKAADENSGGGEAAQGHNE
Experiment: CRE-SEAP reporter gene assay, coupling with sweet receptor
Format: cell-based
Settings: HEK-293 cells cotransfected with T1R2 and T1R3; 5 mM saccharin
Excerpt: The GPCRs examined were those that couple with Gαi/Gαo subunits (serotonin 1b, neuropeptide Y1, leukotriene B4, and dopamine D4), Gαq (GNRH, UDP, and calcium-sensing receptors), and the orphan mammalian sweet taste receptor complex (T1R2 and T1R3) with unknown coupling preference. The Gαs-based chimeric G proteins examined in this example were Gαs-Gαi-5, Gαs-Gαt-13 (SEQ ID NO: 3), Gαs-Gαo-13 (SEQ ID NO: 4), Gαs-Gαi-13 (SEQ ID NO: 5), Gαs-Gαz-6 (SEQ ID NO: 18), Gαs-Gα15-13 (SEQ ID NO: 7), Gαs-Gαk-5 (SEQ ID NO: 2), and Gαs-Gαq-13 (SEQ ID NO: 8). The chimeric G protein constructs were prepared as described herein. For the coupling assay, HEK-293 cells were cotransfected with each of the Gαs-based chimeric G protein constructs of interest together with the CRE-SEAP reporter gene construct and a cDNA encoding the GPCR to be tested. The transfected cells were cultured in the presence or absence of a GPCR ligand and then assayed for SEAP activity.
Also tested was whether the chimeric G proteins disclosed herein can be used to detect the activation of GPCRs whose G protein coupling preference is unknown, as is the case with orphan GPCRs. […]
Following transfection, the cells were maintained for 48 hours in 200 ul serum free media containing GPCR ligand. […] Fluorescence was then measured using a CytoFluor 4000 multi well plate reader (Applied Biosystems).

B1: Gαs-Gαt-13: Gαs-based chimeric G protein, final 13 C-terminal amino acids substituted with those of Gαt (protein)
chain: MGCLGNSKTEDQRNEEKAQREANKKIEKQLQKDKQVYRATHRLLLLGAGESGKSTIVKQMRILHVNGFNGEGGEEDVPDYASNSDGEKATKVQDIKNNLKEAIETIVAAMSNLVPPVELANPENQFRVDYILSVMNVPNFDFPPEFYEHAKALWEDEGVRACYERSNEYQLIDCAQYFLDKIDVIKQADYVPSDQDLLRCRVLTSGIFETKFQVDKVNFHMFDVGGQRDERRKWIQCFNDVTAIIFVVASSSYNMVIREDNQTNRLQEALNLFKSIWNNRWLRTISVILFLNKQDLLAEKVLAGKSKIEDYFPEFARYTTPEDATPEPGEDPRVTRAKYFIRDEFLRISTASGDGRHYCYPHFTCAVDTENIRRVFNDCRDIIIKENLKDCGLF
modifications: Chimeric protein
notes: Gαs-based chimeric G protein, final 13 C-terminal amino acids substituted with those of Gαt
- increase in SEAP activity: about two
